Data reported in patent US20230265151A1, “GIP/GLP1 CO-AGONIST COMPOUNDS” (priority 2020, published 2023).
*1 amine or outer side, *2 acyl side, *3 side chain or, on linkers, in order; H or OH if unused. Where no end group is shown, it is not given here. Side-chain parts run from the residue outwards. [ ]: non-standard residue; d: D form. The star is where a group is joined. αMePhe(2-F) = C[C@](N)(Cc1ccccc1F)C(=O)O; γGlu = O=C(O)[C@H](CCC(=O)[*:2])N[*:1]; C14 diacid = O=C(O)CCCCCCCCCCCCC(=O)*; εLys = N[C@@H](CCCCN[*:1])C(=O)[*:2]; αMeY = C[C@](N)(Cc1ccc(O)cc1)C(=O)O; αMeL = CC(C)C[C@](C)(N)C(=O)O; Orn = NCCC[C@H](N)C(=O)O; Dap = NC[C@H](N)C(=O)O; AEEA = NCCOCCOCC(=O)O; Aib = CC(C)(N)C(=O)O

T1: human GIP receptor (human, UniProt P48546 22-466)
T1 sequence (looked up): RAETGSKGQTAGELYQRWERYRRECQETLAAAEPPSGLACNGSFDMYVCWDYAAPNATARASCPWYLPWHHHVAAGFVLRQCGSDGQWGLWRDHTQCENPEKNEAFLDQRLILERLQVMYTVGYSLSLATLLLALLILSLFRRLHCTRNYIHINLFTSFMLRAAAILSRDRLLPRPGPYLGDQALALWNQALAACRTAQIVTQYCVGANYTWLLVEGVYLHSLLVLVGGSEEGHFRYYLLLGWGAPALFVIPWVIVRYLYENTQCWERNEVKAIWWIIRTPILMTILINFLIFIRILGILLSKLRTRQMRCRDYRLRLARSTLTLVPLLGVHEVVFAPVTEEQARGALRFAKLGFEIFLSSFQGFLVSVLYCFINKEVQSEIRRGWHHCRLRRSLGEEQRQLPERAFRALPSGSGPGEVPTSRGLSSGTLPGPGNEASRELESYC

T2: human glucose-dependent insulinotropic polypeptide (GIP) receptor (human, UniProt P48546 22-466)
T2 sequence (looked up): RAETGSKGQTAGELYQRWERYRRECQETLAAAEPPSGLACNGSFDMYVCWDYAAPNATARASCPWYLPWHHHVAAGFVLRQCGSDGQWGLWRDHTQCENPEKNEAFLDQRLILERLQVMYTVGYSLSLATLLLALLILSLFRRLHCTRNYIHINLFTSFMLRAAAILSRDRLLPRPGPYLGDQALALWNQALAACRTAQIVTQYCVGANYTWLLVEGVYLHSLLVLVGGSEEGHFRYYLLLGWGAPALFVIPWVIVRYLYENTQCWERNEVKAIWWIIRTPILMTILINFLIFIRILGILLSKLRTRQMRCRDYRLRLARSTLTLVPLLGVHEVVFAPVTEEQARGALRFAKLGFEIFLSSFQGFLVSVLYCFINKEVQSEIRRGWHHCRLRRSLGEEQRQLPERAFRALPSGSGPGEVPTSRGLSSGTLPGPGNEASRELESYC


Assays:
Test in all cases: cell-based or functional assay
human GIP receptor = target: T1, human GIP receptor
human GLP-1 receptor = human GLP-1 receptor (human, UniProt P43220 24-463)
human glucagon receptor [1] = target: human glucagon receptor (human, UniProt P47871 26-477)
[2] = target: T2, human glucose-dependent insulinotropic …
[3] = target: human glucagon-like peptide-1 (GLP-1) receptor (human, UniProt P43220 24-463)
human glucagon receptor [4] = target: human glucagon receptor (human, UniProt P47871 26-477); remark: listed apart in the source

Binder	cAMP EC50 (1.0% HSA) (human GIP receptor)	cAMP Emax (1.0% HSA) (human GIP receptor)	cAMP EC50 (1.0% HSA) (human GLP-1 receptor)	cAMP EC50 (1.0% HSA) (human glucagon receptor [1])	also measured
Y[Aib]EGT[αMePhe(2-F)]TSDV[Dap]I[αMeL]LD[Orn]K([AEEA-AEEA-γGlu-C14 diacid])AQ[Aib]EFI[dE][αMeY]LIEGGK([AEEA-AEEA-γGlu-C14 diacid])SSGAPPPS-NH2 (N-terminus assumed; SMILES CC[C@H](C)[C@H](NC(=O)[C@H](CC(C)C)NC(=O)[C@](C)(Cc1ccc(O)cc1)NC(=O)[C@@H](CCC(=O)O)NC(=O)[C@@H](NC(=O)[C@H](Cc1ccccc1)NC(=O)[C@H](CCC(=O)O)NC(=O)C(C)(C)NC(=O)[C@H](CCC(N)=O)NC(=O)[C@H](C)NC(=O)[C@H](CCCCNC(=O)COCCOCCNC(=O)COCCOCCNC(=O)CC[C@H](NC(=O)CCCCCCCCCCCCC(=O)O)C(=O)O)NC(=O)[C@H](CCCN)NC(=O)[C@H](CC(=O)O)NC(=O)[C@H](CC(C)C)NC(=O)[C@](C)(CC(C)C)NC(=O)[C@@H](NC(=O)[C@H](CN)NC(=O)[C@@H](NC(=O)[C@H](CC(=O)O)NC(=O)[C@H](CO)NC(=O)[C@@H](NC(=O)[C@](C)(Cc1ccccc1F)NC(=O)[C@@H](NC(=O)CNC(=O)[C@H](CCC(=O)O)NC(=O)C(C)(C)NC(=O)[C@@H](N)Cc1ccc(O)cc1)[C@@H](C)O)[C@@H](C)O)C(C)C)[C@@H](C)CC)[C@@H](C)CC)C(=O)N[C@@H](CCC(=O)O)C(=O)NCC(=O)NCC(=O)N[C@@H](CCCCNC(=O)COCCOCCNC(=O)COCCOCCNC(=O)CC[C@H](NC(=O)CCCCCCCCCCCCC(=O)O)C(=O)O)C(=O)N[C@@H](CO)C(=O)N[C@@H](CO)C(=O)NCC(=O)N[C@@H](C)C(=O)N1CCC[C@H]1C(=O)N1CCC[C@H]1C(=O)N1CCC[C@H]1C(=O)N[C@@H](CO)C(N)=O)	13.2 nM	80.5%	25.1 nM	–	–
Y[Aib]EGT[αMePhe(2-F)]TSDV[Aib]I[αMeL]LD[Orn]K([εLys-γGlu-C14 diacid])AQ[Aib]EFI[dE][αMeY]LIEGGK([εLys-γGlu-C14 diacid])SSGAPPPS-NH2 (N-terminus assumed; SMILES CC[C@H](C)[C@H](NC(=O)[C@H](CC(C)C)NC(=O)[C@](C)(Cc1ccc(O)cc1)NC(=O)[C@@H](CCC(=O)O)NC(=O)[C@@H](NC(=O)[C@H](Cc1ccccc1)NC(=O)[C@H](CCC(=O)O)NC(=O)C(C)(C)NC(=O)[C@H](CCC(N)=O)NC(=O)[C@H](C)NC(=O)[C@H](CCCCNC(=O)[C@@H](N)CCCCNC(=O)CC[C@H](NC(=O)CCCCCCCCCCCCC(=O)O)C(=O)O)NC(=O)[C@H](CCCN)NC(=O)[C@H](CC(=O)O)NC(=O)[C@H](CC(C)C)NC(=O)[C@](C)(CC(C)C)NC(=O)[C@@H](NC(=O)C(C)(C)NC(=O)[C@@H](NC(=O)[C@H](CC(=O)O)NC(=O)[C@H](CO)NC(=O)[C@@H](NC(=O)[C@](C)(Cc1ccccc1F)NC(=O)[C@@H](NC(=O)CNC(=O)[C@H](CCC(=O)O)NC(=O)C(C)(C)NC(=O)[C@@H](N)Cc1ccc(O)cc1)[C@@H](C)O)[C@@H](C)O)C(C)C)[C@@H](C)CC)[C@@H](C)CC)C(=O)N[C@@H](CCC(=O)O)C(=O)NCC(=O)NCC(=O)N[C@@H](CCCCNC(=O)[C@@H](N)CCCCNC(=O)CC[C@H](NC(=O)CCCCCCCCCCCCC(=O)O)C(=O)O)C(=O)N[C@@H](CO)C(=O)N[C@@H](CO)C(=O)NCC(=O)N[C@@H](C)C(=O)N1CCC[C@H]1C(=O)N1CCC[C@H]1C(=O)N1CCC[C@H]1C(=O)N[C@@H](CO)C(N)=O)	3.62 nM	–	26.6 nM	–	–
Y[Aib]EGT[αMePhe(2-F)]TSDV[Aib]I[αMeL]LD[Orn]K([AEEA-AEEA-γGlu-C14 diacid])AQ[Aib]EFI[dE][αMeY]LIEGGK([AEEA-AEEA-γGlu-C14 diacid])SSGAPPPS-NH2 (N-terminus assumed; SMILES CC[C@H](C)[C@H](NC(=O)[C@H](CC(C)C)NC(=O)[C@](C)(Cc1ccc(O)cc1)NC(=O)[C@@H](CCC(=O)O)NC(=O)[C@@H](NC(=O)[C@H](Cc1ccccc1)NC(=O)[C@H](CCC(=O)O)NC(=O)C(C)(C)NC(=O)[C@H](CCC(N)=O)NC(=O)[C@H](C)NC(=O)[C@H](CCCCNC(=O)COCCOCCNC(=O)COCCOCCNC(=O)CC[C@H](NC(=O)CCCCCCCCCCCCC(=O)O)C(=O)O)NC(=O)[C@H](CCCN)NC(=O)[C@H](CC(=O)O)NC(=O)[C@H](CC(C)C)NC(=O)[C@](C)(CC(C)C)NC(=O)[C@@H](NC(=O)C(C)(C)NC(=O)[C@@H](NC(=O)[C@H](CC(=O)O)NC(=O)[C@H](CO)NC(=O)[C@@H](NC(=O)[C@](C)(Cc1ccccc1F)NC(=O)[C@@H](NC(=O)CNC(=O)[C@H](CCC(=O)O)NC(=O)C(C)(C)NC(=O)[C@@H](N)Cc1ccc(O)cc1)[C@@H](C)O)[C@@H](C)O)C(C)C)[C@@H](C)CC)[C@@H](C)CC)C(=O)N[C@@H](CCC(=O)O)C(=O)NCC(=O)NCC(=O)N[C@@H](CCCCNC(=O)COCCOCCNC(=O)COCCOCCNC(=O)CC[C@H](NC(=O)CCCCCCCCCCCCC(=O)O)C(=O)O)C(=O)N[C@@H](CO)C(=O)N[C@@H](CO)C(=O)NCC(=O)N[C@@H](C)C(=O)N1CCC[C@H]1C(=O)N1CCC[C@H]1C(=O)N1CCC[C@H]1C(=O)N[C@@H](CO)C(N)=O)	7.05 nM	–	20.4 nM	–	–
YXEGTXTSDXSIXLDXKAQXEFIXXLIEGKPSSGAPPPS (Aib2, αMeF(2F)6, 4Pal10, αMeL13, Orn16, Aib20, D-Glu24, αMeY25; acylated K17, K30 (groups as in name); C-terminal amide)	1.12 nM	–	–	> 9950 nM	cAMP Emax (1.0% HSA) (human GLP-1 receptor): 103%
YXEGTXTSDYXIXLDXKAQXEFIXXLIEGGKSSGAPPPS (Aib2, αMeF(2F)6, Aib11, αMeL13, Orn16, Aib20, D-Glu24, αMeY25; acylated K17, K31 (groups as in name); C-terminal amide)	1.81 nM	91.4%	27.8 nM	> 9950 nM	–
YXEGTXTSDXXIXLDXKAQXEFIXXLIEGGKSSGAPPPS (Aib2, αMeF(2F)6, 4Pal10, Dap11, αMeL13, Orn16, K17(Z), Aib20, D-Glu24, αMeY25, K31(Z), C-terminal NH2; Z = AEEA2-(γ-Glu)-CO-(CH2)12-CO2H) [Example 199]	–	–	–	–	cAMP EC50 [2]: 0.0587 nM; cAMP Emax [2]: 96.9%; cAMP EC50 [3]: 3.2 nM; cAMP Emax [3]: 96.7%; cAMP EC50 (human glucagon receptor [4]): > 9950 nM
YXEGTXTSDXSIXLDXKAQXEFIXXLIEGGKSSGAPPPS (Aib2, αMeF6, 4Pal10, αMeL13, Orn16, Aib20, D-Glu24, αMeF25; acylated K17, K31 (groups as in name); C-terminal amide)	2.12 nM	–	118 nM	> 9950 nM	–
YXEGTXTSDVXIXLDXKAQXEFIXXLIEGGKSSGAPPPS (Aib2, αMeF(2F)6, αMeS11, αMeL13, Orn16, Aib20, D-Glu24, αMeY25; acylated K17, K31 (groups as in name); C-terminal amide)	16.6 nM	81%	33.7 nM	–	cAMP Emax (1.0% HSA) (human GLP-1 receptor): 91%
YXEGTXTSDXSKXLDXKAQXEFIXXLIEGGPSSGAPPPS (Aib2, αMeF(2F)6, 4Pal10, αMeL13, Orn16, Aib20, D-Glu24, αMeY25; acylated K12, K17 (groups as in name); C-terminal amide)	2.08 nM	93%	60.4 nM	> 9950 nM	–
